Consider 39 variants from the supplement of paper PMC6755084.

Sequences and labels used below:
B1: minF1; the commonest letter at each place (parent)
chain: GAGACCGCAACTGAAAAGTTGTTATCAGAAATGGATGGGTTGAATTTCTGCACGTAGAAGCAAAAGGC

The variants in this series derive from B1. Kind of series: fraction ligated after 30 min (ligated reads / total reads); higher = more ligase activity. As to conditions: with F1*subA RNA substrate (template-directed ligation), 42 °C. Summed up:
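Templates from an oligo pool encoding minimized ligase ribozyme variants were amplified by PCR, transcribed with T7, and purified on gels. Gel electrophoresis separated ligated from unligated RNAs, which were then reverse transcribed using barcoded primers and sequenced on a MiSeq, keeping core bases with quality ≥30. For each variant, fraction ligated equals ligated reads divided by total reads.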
For the variant GAGACCGCAACTGAAAAGTTGTTATCAGACATGGGTGGGTTGAATTTCTGCACGTAGAAGCAAAAGGC, the fraction ligated was 0.159.

As for GAGACCGCAACTGAAAAGTTGTTATCAGACATGGTTGGGTTGAATTTCTGCACGTAGAAGCAAAAGGC, the fraction ligated amounted to 0.01.

For the variant GAGACCGCAACTGAAAAGTTGTTATCAGACATGGCTGGGTTGAATTTCTGCACGTAGAAGCAAAAGGC, the fraction ligated came to 0.00575.

For GAGACCGCAACTGAAAAGTTGTTATCAGACATGGATGGGTTGAATTTCTGCACGTAGAAGCAAAAGGC, the fraction ligated stood at 0.806.

For GAGACCGCAACTGAAAAGTTGTTATCAGTAATCGATGGGTTGAATTTCTGCACGTAGAAGCAAAAGGC, the fraction ligated is 0.721.

As for GAGACCGCAACTGAAAAGTTGTTATCAGTAATTGATGGGTTGAATTTCTGCACGTAGAAGCAAAAGGC, the fraction ligated was found to be 0.453.

As for GAGACCGCAACTGAAAAGTTGTTATCAGTAATAGATGGGTTGAATTTCTGCACGTAGAAGCAAAAGGC, the fraction ligated amounted to 0.783.

As to GAGACCGCAACTGAAAAGTTGTTATCAGTAAAGGATGGGTTGAATTTCTGCACGTAGAAGCAAAAGGC, the fraction ligated stood at 0.0493.

As for GAGACCGCAACTGAAAAGTTGTTATCAGTAAGGGATGGGTTGAATTTCTGCACGTAGAAGCAAAAGGC, the fraction ligated came to 0.0161.

Consider GAGACCGCAACTGAAAAGTTGTTATCAGTAACGGATGGGTTGAATTTCTGCACGTAGAAGCAAAAGGC, for which the fraction ligated was determined as 0.0232.

Turning to GAGACCGCAACTGAAAAGTTGTTATCAGGAATGGCTGGGTTGAATTTCTGCACGTAGAAGCAAAAGGC, the fraction ligated amounted to 0.0139.

Turning to GAGACCGCAACTGAAAAGTTGTTATCAGGAATGGTTGGGTTGAATTTCTGCACGTAGAAGCAAAAGGC, the fraction ligated was determined as 0.023.

Regarding GAGACCGCAACTGAAAAGTTGTTATCAGGAATGGGTGGGTTGAATTTCTGCACGTAGAAGCAAAAGGC, the fraction ligated worked out at 0.204.

For GAGACCGCAACTGAAAAGTTGTTATCAGGAATGGATGGGTTTAATTTCTGCACGTAGAAGCAAAAGGC, the fraction ligated is 0.096.

For the variant GAGACCGCAACTGAAAAGTTGTTATCAGGAATGGATGGGTTCAATTTCTGCACGTAGAAGCAAAAGGC, the fraction ligated stood at 0.00737.

Turning to GAGACCGCAACTGAAAAGTTGTTATCAGGAATGGATGGGTTAAATTTCTGCACGTAGAAGCAAAAGGC, the fraction ligated is 0.28.

Turning to GAGACCGCAACTGAAAAGTTGTTATCAGTCATGGATGGGTTGAATTTCTGCACGTAGAAGCAAAAGGC, the fraction ligated is 0.806.

As for GAGACCGCAACTGAAAAGTTGTTATCAGTGATGGATGGGTTGAATTTCTGCACGTAGAAGCAAAAGGC, the fraction ligated was found to be 0.821.

On to GAGACCGCAACTGAAAAGTTGTTATCAGTTATGGATGGGTTGAATTTCTGCACGTAGAAGCAAAAGGC, for which the fraction ligated came out at 0.789.

As for GAGACCGCAACTGAAAAGTTGTTATCAGGAATGAATGGGTTGAATTTCTGCACGTAGAAGCAAAAGGC, the fraction ligated came to 0.0509.

Take GAGACCGCAACTGAAAAGTTGTTATCAGGAATGCATGGGTTGAATTTCTGCACGTAGAAGCAAAAGGC: the fraction ligated is 0.00249.

As to GAGACCGCAACTGAAAAGTTGTTATCAGGAATGTATGGGTTGAATTTCTGCACGTAGAAGCAAAAGGC, the fraction ligated came to 0.00809.

For GAGACCGCAACTGAAAAGTTGTTATCAGGAATGGACGGGTTGAATTTCTGCACGTAGAAGCAAAAGGC, the fraction ligated amounted to 0.0189.

Take GAGACCGCAACTGAAAAGTTGTTATCAGGAATGGAGGGGTTGAATTTCTGCACGTAGAAGCAAAAGGC: the fraction ligated is 0.0397.

For GAGACCGCAACTGAAAAGTTGTTATCAGGAATGGAAGGGTTGAATTTCTGCACGTAGAAGCAAAAGGC, the fraction ligated stood at 0.0285.

Turning to GAGACCGCAACTGAAAAGTTGTTATCAGGAAGGGATGGGTTGAATTTCTGCACGTAGAAGCAAAAGGC, the fraction ligated amounted to 0.0222.

For the variant GAGACCGCAACTGAAAAGTTGTTATCAGGAACGGATGGGTTGAATTTCTGCACGTAGAAGCAAAAGGC, the fraction ligated is 0.0215.

Take GAGACCGCAACTGAAAAGTTGTTATCAGGAAAGGATGGGTTGAATTTCTGCACGTAGAAGCAAAAGGC: the fraction ligated came out at 0.0412.

Consider GAGACCGCAACTGAAAAGTTGTTATCAGGAATGGATGGGTTGAATTTCTGCACGTAGAAGCAAAAGGC, for which the fraction ligated is 0.827.

As for GAGACCGCAACTGAAAAGTTGTTATCAGTAATGGATGGGTTGAATTTCTGCACGTAGAAGCAAAAGGC, the fraction ligated was 0.815.

Turning to GAGACCGCAACTGAAAAGTTGTTATCAGGAATGGATTGGTTGAATTTCTGCACGTAGAAGCAAAAGGC, the fraction ligated was 0.0206.

Regarding GAGACCGCAACTGAAAAGTTGTTATCAGGAATGGATAGGTTGAATTTCTGCACGTAGAAGCAAAAGGC, the fraction ligated is 0.0118.

For the variant GAGACCGCAACTGAAAAGTTGTTATCAGGAATGGATCGGTTGAATTTCTGCACGTAGAAGCAAAAGGC, the fraction ligated worked out at 0.0058.

On to GAGACCGCAACTGAAAAGTTGTTATCAGTAATGGGTGGGTTGAATTTCTGCACGTAGAAGCAAAAGGC, for which the fraction ligated is 0.153.

With GAGACCGCAACTGAAAAGTTGTTATCAGTAATGGCTGGGTTGAATTTCTGCACGTAGAAGCAAAAGGC, the fraction ligated worked out at 0.00991.

Regarding GAGACCGCAACTGAAAAGTTGTTATCAGTAATGGTTGGGTTGAATTTCTGCACGTAGAAGCAAAAGGC, the fraction ligated worked out at 0.0234.

With GAGACCGCAACTGAAAAGTTGTTATCAGTAATGGATTGGTTGAATTTCTGCACGTAGAAGCAAAAGGC, the fraction ligated was 0.027.

For GAGACCGCAACTGAAAAGTTGTTATCAGTAATGGATCGGTTGAATTTCTGCACGTAGAAGCAAAAGGC, the fraction ligated came out at 0.00775.

For the variant GAGACCGCAACTGAAAAGTTGTTATCAGTAATGGATAGGTTGAATTTCTGCACGTAGAAGCAAAAGGC, the fraction ligated stood at 0.00694.
